Data on eight molecules can be found in patent publication US20250011430A1 (GUANGZHOU BIO GENE TECHNOLOGY, published 2025).

The chains are these.
T1: B7H3 on cells (B7H3 on HEK293 cells; B7H3 expressed from plasmid on HEK-293T and QT6 cells) (human, UniProt Q5ZPR3 29-534)
T1 construct: whole, on cells; also called HEK293 B7H3 proteins; human B7H3
T1 sequence (looked up): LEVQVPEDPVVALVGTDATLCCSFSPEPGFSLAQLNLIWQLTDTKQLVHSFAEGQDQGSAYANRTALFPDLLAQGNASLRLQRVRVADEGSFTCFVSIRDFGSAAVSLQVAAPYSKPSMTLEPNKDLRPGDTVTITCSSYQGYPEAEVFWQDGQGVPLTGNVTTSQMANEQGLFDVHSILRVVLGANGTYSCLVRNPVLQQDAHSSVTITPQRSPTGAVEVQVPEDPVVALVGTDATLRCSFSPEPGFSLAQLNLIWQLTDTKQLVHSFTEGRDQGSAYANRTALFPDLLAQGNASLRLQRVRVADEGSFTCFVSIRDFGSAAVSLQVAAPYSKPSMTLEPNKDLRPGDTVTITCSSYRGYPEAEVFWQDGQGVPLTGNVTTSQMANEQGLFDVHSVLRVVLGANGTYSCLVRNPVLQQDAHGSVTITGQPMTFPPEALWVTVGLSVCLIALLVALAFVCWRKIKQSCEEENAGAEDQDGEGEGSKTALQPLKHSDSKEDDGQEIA

B1: chimeric antibody ch6F7 (antibody, V domains shown)
VH: EVKLVESGGGLVQPGGSLRLSCATSGFTFTDYYMSWVRQPPGKALEWLGFIRNKANGYTTEYSASVKGRFTISSDDSQSILYLQMNTLRAEDSATYYCARDSHYRPFAYWGQGTLVTVSA
VL: DIQMTQSPSSLTVTAGEKVTMSCKSSQSLLNSGNQNNYLTWYQQKPGQPPKLLIYLASTRDSGVPDRFTGSGSGTDFTLTISSVQAEDLAVYYCQNDYTYPLTFGAGTKLELKR
B2: chimeric antibody ch26B6 (antibody, V domains shown)
VH: EVQLQQSGPELVKPGASVKISCKTSGYAFTEYTMHWVKQSQGKSLEWIGGINPNTGGTTYNQKFNGKATLTVDRSSSTAYMELRSLTSEDSAVYYCTRPYRDDGGFHWYFDVWGAGTAVTVSS
VL: QIVLTQSPAVMSTSPGEKVTMTCSASSSVSYMQWYQQKSGTSPKRWIYDTSKLTSGVPARFSGSGSGTSYSLTISSMEAEDAATYYCQQWSSNPLTFGAGTKLELKR
B3: humanized 26B6 (antibody, V domains shown)
VH: EVQLVQSGAEVKKPGASVKVSCKASGYTFTEYTMHWVRQAPGQGLEWIGGINPNTGGTTYNQKFNGRVTMTRDTSISTAYMELSSLRSEDTAVYYCTRPYRDDGGFHWYFDVWGQGTLVTVSS
VL: EIVLTQSPATLSLSPGERATLSCSASSSVSYMQWYQQKPGLAPRLLIYDTSKLTSGIPDRFSGSGSGTDFTLTISRLEPEDFAVYYCQQWSSNPLTFGGGTKVEIKR
notes: also called hz26B6; h26B6
B4: chimeric antibody ch2B8 (antibody, V domains shown)
VH: QVQLQQSGPELVRPGVSVKISCKVSGYTFTDGAMHWVKRSHAKSLEWIGIINTNSGNTNYNQKFQGKATMTVDKSSSTAYMELARLTSEDSAIYYCARGVFYYGYGAWFAYWGQGTLVTVSA
VL: DVQITQSPSYLTASPGETIIINCRASKTISNYLAWYQEKPGKTNKLLIYSGSTLQSGIPSRFSGSGSDTDFTLTISSLEPEDFAMYYCQQHHEYPLTFGAGTKLELKR
B5: humanized 6F7 with light chain variable region LV1 (antibody, V domains shown)
VH: EVQLVESGGGLVQPGGSLRLSCAASGFTFTDYYMSWVRQAPGKGLEWVAFIRNKANGYTTEYSASVKGRFTISRDDSKNSLYLQMNSLRAEDTAVYYCARDSHYRPFAYWGQGTLVTVSS
VL: DIVMTQSPLSLPVTPGEPASISCKSSQSLLNSGNQNNYLTWYLQKPGQSPQLLIYLASTRDSGVPDRFSGSGSGTDFTLKISRVEAEDVGVYYCQNDYTYPLTFGGGTKVEIKR
notes: also called hz6F7L1; h6F7H1L1
B6: humanized 6F7 with light chain variable region LV2 (antibody, V domains shown)
VH: EVQLVESGGGLVQPGGSLRLSCAASGFTFTDYYMSWVRQAPGKGLEWVAFIRNKANGYTTEYSASVKGRFTISRDDSKNSLYLQMNSLRAEDTAVYYCARDSHYRPFAYWGQGTLVTVSS
VL: DIVMTQSPDSLAVSLGERATINCKSSQSLLNSGNQNNYLTWYQQKPGQPPKLLIYLASTRDSGVPDRFSGSGSGTDFTLTISSLQAEDVAVYYCQNDYTYPLTFGGGTKVEIKR
notes: also called hz6F7L2; h6F7H1L2
B7: humanized 2B8 (antibody, V domains shown)
VH: QVQLVQSGAEVKKPGASVKVSCKVSGYTFTDGAMHWVRQAPGQGLEWIGIINTNSGNTNYNQKFQGRVTMTRDTSISTAYMELSRLRSEDTAVYYCARGVFYYGYGAWFAYWGQGTLVTVSS
VL: DIQLTQSPSFLSASVGDRVTINCRASKTISNYLAWYQQKPGKAPKLLIYSGSTLQSGVPSRFSGSGSGTDFTLTISSLQPEDFATYYCQQHHEYPLTFGGGTKVEIKR
notes: also called hz2B8; h2B8
B8: anti-B7H3 antibody 23H1 (antibody, V domains shown)
VH: EVKLVESGGGLVQPGGSLRLSCATSGFTFTDYYMSWVRQPPGKALEWLGFIRNKVNDYTTEYSVSVKGRFTISRDNSQTILYLQMNTLRAEDSATYYCARDSPYRPFAYWGQGTLVTVSA
VL: DIVMTQSPSSLTVTAGENVTMSCKSSQTLLNNGNQKNFLTWYQQKPGQPPKLLIYLASTRESGVPDRFTGSGSGTDFTLTISSVQAEDLAVYYCQNDYTYPLTFGAGTKLELKR

The first assay concerns the target T1, B7H3 on cells (B7H3 on HEK293 cells; …). Put plainly: flow cytometry on HEK293 cells (text value, conflicts with Table 2). The method, then:
(§1) 2×10⁵ HEK293 cells were resuspended with PBS+5% BSA and incubated for 30 min at 4° C. Different concentrations of humanized antibody (5 μg/mL to 0.002286 μg/mL, 3-fold gradient dilution) were added and incubated for 60 min at 4° C. After centrifugation and washing, a PBS+5% BSA solution containing an FITC-labeled secondary antibody (1:200, sigma, F9512) was added and incubated on ice for 30 min in the dark. Cells were washed three times before the flow cytometry analysis. EC50 was calculated using GraphPad software.
(A flow cytometer gives signals particle by particle.)
For B1, the EC50 (as a rule, the midpoint of the concentration-response curve) was 0.224 µg/mL. Same read-out and setting: for B2 the value was 0.232 µg/mL.

A further assay shares this target. Put plainly: flow cytometry on HEK293 cells. As to the method:
as §1
In turn, B3 had an EC50 of 0.306 µg/mL. Molecule B4 gave an EC50 of 0.132 µg/mL. Turning to B5, the EC50 turned out to be 0.604 µg/mL.

The molecule B6 registered an EC50 of 0.41 µg/mL. On the same count and under the same terms, for B7 the value was 0.0779 µg/mL; for B2, 0.224 µg/mL.

The next assay shares this target. In words: flow cytometry on HEK293 cells, FITC-labelled secondary antibody; y axis without title. The method, then: 5×10⁵ HEK293 cells were resuspended with PBS+5% BSA and incubated for 30 min at 4° C. Different concentrations of antibody (1 μg/mL to 0.01 μg/mL, 10-fold gradient dilution) were added and incubated for 60 min at 4° C. After centrifugation and washing, a PBS+5% BSA solution containing an FITC-labeled secondary antibody (1:200, sigma, F9512) was added and incubated on ice for 30 min in the dark. Cells were washed three times before the flow cytometry analysis.
Using the flow cytometry method, the control antibodies (huM30, Eno) and the 2B8, 26B8, 23H1 and 6F7 antibody were tested for their binding abilities to HEK293 B7H3 proteins at a final concentration of 1 μg/mL, 0.1 μg/mL and 0.01 μg/mL, respectively. Compared with the control antibodies, the 2B8, […], 23H1 and 6F7 antibody each have the same or better binding ability to the HEK293 B7H3 proteins.
On to B8, for which the binding result is “binds”.
